{"source": "patent US12618044B2", "about": "“Specification of functional cranial placode derivatives from human pluripotent stem cells” (MEMORIAL SLOAN-KETTERING CANCER CENTER, priority 2013, dated 2026)", "type_in_all_cases": "cell-based, human", "key": {"[1]": {"system": "hESC", "assay": "Floor plate induction from hESC (FOXA2 expression)", "details": "for FP competency / FOXA2 induction: added to neural rosette stage cells", "method": "(§1) For MS5 induction, established methods previously reported were used (Perrier et al., 2004). Feeder free neural induction was carried out as previously described (Chambers et al., 2009). Briefly, hESCs cultures were disaggregated using accutase for 20 minutes, washed using hESCs media and pre-plated on gelatin for 1 hour at 37° C. in the presence of ROCK inhibitor to remove MEFs. The nonadherent hESCs were washed and plated on matrigel at a density of 20,000 cells/cm2 on matrigel (BD) coated dishes in MEF conditioned hESCs media (CM) spiked with 10 ng/mL of FGF-2 and ROCK-inhibitor. The ROCK inhibitor was withdrawn, and hESCs were allowed to expand in CM for 3 days or until they were nearly confluent. The initial differentiation media conditions included knock out serum replacement (KSR) media with […] TGF-b inhibitor (SB431542, Tocris) and 500 ng/mL of Noggin (R&D). Upon day 5 of differentiation, increasing amounts of N2 media (25%, 50%, 75%) was added to the KSR media every two days while maintaining 500 ng/mL of Noggin and TGF-b inhibitor. For FP induction, Sonic C25II was added at 200 ng/ml. In some experiments, DKK-1 (R&D 100 ng/ml) FGF8 (R&D 50 ng/ml), Wnt-1 (Peprotech 50 ng/ml) and Retinoic Acid (R&D 1 uM) were added.\nTissue was fixed using 4% paraformaldehyde and Picric acid for 15 minutes, washed with PBS, permeabalized using 0.3% Triton X in PBS, and blocked using 10% Donkey Serum. Primary antibodies used for microscopy included PAX6 (Covance), TUJ1 (Covance), ZO1 (Zymed), BF1 (FOXG1, gift E.Lai), TH (Pelfreez), NKX6.1 (DSHB) and FOXA2 (SantaCruz).\nBased on the hypothesis that FP specification in the mouse occurs at early developmental stages, at the time of or prior to neural induction, the inventors repeated SHH induction studies at Day 9, the time of rosette specification, using classic stromal-feeder mediated neural induction protocols (Elkabetz et al., 2008). Under this paradigm the inventors noticed a drastic change in cell morphology restricted to the cells treated with SHH-C25II (FIG. 15B). […] In addition to decreased expression of BF1 the inventors also observed decreased expression of PAX6, another maker expressed in the AN (FIG. 1E). […] The inventors performed dose response studies to understand how FP marker induction compared to that of NKX6.1 expression; a gene known to respond to lower concentrations of SHH. […] At higher concentrations FP markers rapidly rise, while NKX6.1 expression tapers off (FIG. 15G).\nUsing this protocol, in combination with compositions and methods of the present inventions, the inventors aimed to optimize FP differentiation by adding Sonic C25II at different time points during neural induction and assaying for FOXA2 expression. Differentiation was initiated upon NSB exposure, and Sonic C25II was added at Day 1, Day 3, Day 5, or Day 7 (FIG. 16A). […] Furthermore, the differentiation conditions establish a robust platform for inducing human FOXA2+ cells in vitro."}, "[2]": {"system": "hESC", "assay": "Real-Time PCR of pluripotency and germ layer markers in treated hESC", "method": "There is also evidence for suppression of alternative embryonic germ layers such as Noggin-mediated suppression of SOX17 (endodermal lineage) and SB431542-mediated suppression of Brachyury (mesodermal lineage) (FIG. 1C).\nTotal RNA was extracted using an RNeasy kit (Qiagen). For each sample, 1 ug of total RNA was treated for DNA contamination and reverse transcribed using the Quantitect RT kit (Qiagen). Amplified material was detected using Quantitect SYBR green probes and PCR kit (Qiagen) on a Mastercycler RealPlex2 (Eppendorf). Results were normalized to a HPRT control and are from 4-6 technical replicates of 2-3 independent biological samples at each data point."}, "[3]": {"system": "hESC", "assay": "Placode induction from hESC (N-SB versus PIP, SIX1 expression)", "details": "pre-placode cells", "method": "A timed withdrawal of the BMP inhibitor Noggin during N-SB differentiation was also tested to determine if placodal fates could be induced via derepressing endogenous BMP signaling. A time course analysis was performed during which Noggin was removed at different time points of the N-SB protocol (FIG. 28A).\nWithdrawal of the BMP inhibitor noggin during N-SB differentiation may enhance the emergence of placodal fates by de-repressing endogenous BMP signaling. To this end, a time course study was performed by removing noggin at different time points of the NSB protocol (FIG. 11A) while monitoring the induction of placodal marker (FIG. 11B) trophoectodermal, neurectodermal by qRT-PCR analysis at day 11 of differentiation. Withdrawal of noggin at day 2 or 3 of differentiation yielded efficient induction of Six1 while noggin withdrawal at day 1 of differentiation lead to the induction of Eya1 in the absence of Six1 expression.\nNeural Induction and placode induction: Feeder-free neural induction was carried out as previously described (Chambers et al., 2009). Briefly, hESCs cultures were disaggregated using accutase for 20 minutes, washed using hESCs media and pre-plated on gelatin for 1 hour at 37° C. in the presence of ROCK inhibitor to remove MEFs. The non-adherent hESCs were washed and plated on matrigel at a density of 60,000 cells/cm2 on matrigel (BD) coated dishes in MEF conditioned hESCs media (CM) spiked with 10 ng/mL of FGF-2 and ROCK-inhibitor. The ROCK inhibitor was withdrawn after 24 hours, and hESCs were allowed to expand in CM for 2 days or until they were 95% confluent. The initial differentiation media conditions included knock out serum replacement (KSR) media with 10 μM TGF-β inhibitor (SB431542, Tocris) and 250 ng/mL of Noggin (R&D). Upon day 5 of differentiation, increasing amounts of N2 media (25%, 50%, and 75%) were added to the KSR media every two days while maintaining […] of Noggin and TGF-β inhibitor. Similar results could be obtained when using KSR-free conditions (E6 medium (Chen et al., 2011)) following adjustments in BMP signaling; data not shown). For placode induction, Noggin was removed at day3 of differentiation. In some experiments, BMP-4 (R&D 50 ng/ml), Noggin (R&D 250 ng/ml), DKK-1 (R&D 100 ng/ml), FGF8 (R&D 50 ng/ml), SU5402 (Tocris 10 μM), Wnt-3a (R&D 50 ng/ml), DAPT (Tocris, 10 μM), CHIR99021 (Stemgent, 3 μM), Cyclopamine (Tocris, 10 μM), Sonic Hedgehog (C25II-R&D 100 ng/ml), and Purmorphamine (Stemgent, 1 μM), were added.\nMicroscopy, antibodies, and flow cytometry: Cells were fixed using 4% paraformaldehyde for 15 minutes, washed with PBS, permeabilized using 0.3% Triton X in PBS, and blocked using 1% BSA. Primary antibodies used for microscopy included PAX6 (Covance, DSHB), TUJ1 (Covance), BRN3A (Chemicon), AP2a (DSHB), HNK1 (Sigma), PAX3 (DSHB), SIX1 (ABR, Atlas), ISL1 (DSHB), PERIPHERIN (Santa Cruz), GSU (gift A. McNeilly), CRYAB (Chemicon), DACH1 (Proteintech), EYA1 (gift Kawakami), E-CADHERIN (Abcam), FSH (gift A. McNeilly), GATA2 (Abcam), chick GFP (Abcam), hNCAM (Santa Cruz), GLUTAMATE (Sigma), KRT14 (Labvision), SIX6 (Atlas), LHX3 (Abcam), OVOL2 (Aviva), TFAP2A (DSHB), FOXG1 (gift E. Lai), hCA (Stem Cells), and Ki67 (Sigma). Appropriate Alexa 488, Alexa 568, Alexa 647 secondary antibodies (Molecular Probes) and/or DAPI counterstaining was used for visualization. For Flow Cytometry, cells were mechanically dissociated after exposure to accutase for 20 min at 25° C. To eliminate dead cell populations in FACS analysis, we used DAPI or 7-AAD according to manufacturer's recommendation. Cells were analyzed using FACScan (Becton Dickinson) and FlowJo software (Tree Star, Inc.)."}, "[4]": {"system": "hESC derived FP", "assay": "A/P respecification of hESC derived FP by caudalizing factors", "method": "as §1\nThe inventors contemplated the use of SIX6 as a putative marker of anterior FP identity. Thus SIX6 status of the hESC derived FP was used to mark respecification in response to known caudalizing agents such as FGF8, Wnt-1, and Retinoic Acid. Each of these caudalizing factors was added in combination with SHH and the resulting tissue was assessed for expression of the FP markers FOXA2 and NETRIN-1, the AN marker BF1, and putative anterior FP marker SIX6. FP generation was found not compromised in the presence of caudalizing factors.\nThe inventors discovered that different factors had varied effects on marker expression (FIG. 20C).\nAs mentioned above, studies had identified different enhancers that directed SHH expression to different A/P region along ventral axis (Jeong et al., 2008). […] In the absence of caudalizing factors (SHH C25II alone), LacZ expression was observed herein following transfection with the SBE2 but not the SBE1 enhancer supporting the hypothesis that hESC derived FP is anterior by default (FIG. 20D). In contrast SBE2 activity was abolished upon treatment with Wnt1 or FGF8 while SBE1 activity was induced under these conditions."}, "[5]": {"details": "in combination with Sonic C25II"}}, "data": [{"molecule": "O=C1Nc2cc(Br)ccc2/C1=C1/Nc2ccccc2/C1=N\\O", "note": "[BIO, reference compound]", "values": [{"measurement": "FOXA2 expression", "setting": "[1]; added early, BIO 100 nM", "value": "increase"}, {"measurement": "FP competency / FOXA2 induction", "setting": "[1]", "value": "not sufficient"}]}, {"molecule": "NC(=O)c1ccc(-c2nc(-c3ccc4c(c3)OCO4)c(-c3ccccn3)[nH]2)cc1", "note": "[SB431542, 4-[4-(1,3-benzodioxol-5-yl)-5-(2-pyridinyl)-1H-imidazol-2-yl]-benzamide]", "values": [{"measurement": "Brachyury (mesodermal lineage)", "setting": "[2]", "value": "suppression"}, {"measurement": "CDX2 expression", "setting": "[2]", "value": "dramatic increase"}, {"measurement": "Nanog expression", "setting": "[2]", "value": "rapid loss"}]}, {"molecule": "Noggin", "values": [{"measurement": "CDX2 expression", "setting": "[2]", "value": "Suppression"}, {"measurement": "SOX17 (endodermal lineage)", "setting": "[2]", "value": "suppression"}]}, {"molecule": "Wnt3A: WNT protein, caudalizing cue (protein, UniProt P56704 19-352, looked up) Protein Wnt-3a: SYPIWWSLAVGPQYSSLGSQPILCASIPGLVPKQLRFCRNYVEIMPSVAEGIKIGIQECQHQFRGRRWNCTTVHDSLAIFGPVLDKATRESAFVHAIASAGVAFAVTRSCAEGTAAICGCSSRHQGSPGKGWKWGGCSEDIEFGGMVSREFADARENRPDARSAMNRHNNEAGRQAIASHMHLKCKCHGLSGSCEVKTCWWSQPDFRAIGDFLKDKYDSASEMVVEKHRESRGWVETLRPRYTYFKVPTERDLVYYEASPNFCEPNPETGSFGTRDRTCNVSSHGIDGCDLLCCGRGHNARAERRREKCRCVFHWCCYVSCQECTRVYDVHTCK", "values": [{"measurement": "otic placode compatible population", "setting": "[3]", "value": "induction of a population of cells coexpressing SIX1 and SOX10"}, {"measurement": "FP competency / FOXA2 induction", "setting": "[1]", "value": "not sufficient"}]}, {"molecule": "Wnt-1: caudalizing factor, wingless-type MMTV integration site family, member 1 (protein, UniProt P04628 28-370, looked up) Proto-oncogene Wnt-1: ANSSGRWWGIVNVASSTNLLTDSKSLQLVLEPSLQLLSRKQRRLIRQNPGILHSVSGGLQSAVRECKWQFRNRRWNCPTAPGPHLFGKIVNRGCRETAFIFAITSAGVTHSVARSCSEGSIESCTCDYRRRGPGGPDWHWGGCSDNIDFGRLFGREFVDSGEKGRDLRFLMNLHNNEAGRTTVFSEMRQECKCHGMSGSCTVRTCWMRLPTLRAVGDVLRDRFDGASRVLYGNRGSNRASRAELLRLEPEDPAHKPPSPHDLVYFEKSPNFCTYSGRLGTAGTAGRACNSSSPALDGCELLCCGRGHRTRTQRVTERCNCTFHWCCHVSCRNCTHTRVLHECL", "values": [{"measurement": "FP competency / FOXA2 induction", "setting": "[1]", "value": "not sufficient"}, {"measurement": "FP competency / FOXA2 induction", "setting": "[1]; listed as WNT1", "value": "no effect"}, {"measurement": "midbrain FP markers CORIN and NOV", "setting": "[4]", "value": "significant increase"}, {"measurement": "SBE1 activity", "setting": "[4]; SHH enhancer LacZ construct", "value": "induced"}, {"measurement": "SBE2 activity", "setting": "[4]; SHH enhancer LacZ construct", "value": "abolished"}, {"measurement": "BF1 expression", "setting": "[4]; in combination with SHH", "value": "dramatic reduction"}, {"measurement": "FP production based on FOXA2 and Netrin-1 expression", "setting": "[4]; in combination with SHH", "value": "significantly potentiated"}, {"measurement": "SIX6 expression", "setting": "[4]; in combination with SHH", "value": "significant reduction"}]}, {"molecule": "DKK-1: recombinant DKK-1, Wnt signaling inhibitor (protein, UniProt O94907 32-266, looked up) Dickkopf-related protein 1: TLNSVLNSNAIKNLPPPLGGAAGHPGSAVSAAPGILYPGGNKYQTIDNYQPYPCAEDEECGTDEYCASPTRGGDAGVQICLACRKRRKRCMRHAMCCPGNYCKNGICVSSDQNHFRGEIEETITESFGNDHSTLDGYSRRTTLSSKMYHTKGQEGSVCLRSSDCASGLCCARHFWSKICKPVLKEGQVCTKHRRKGSHGLEIFQRCYCGEGLSCRIQKDHHQASNSSRLHTCQRH", "values": [{"measurement": "FOXA2+ cells", "setting": "[1]; added along with SHH at Day1, 9 days of SHH exposure", "value": "increase"}, {"measurement": "BF1 transcript", "setting": "[1]; [5]", "value": "more rapid rise"}, {"measurement": "FOXA2 message and protein", "setting": "[1]; [5]", "value": "decrease"}]}]}
